{
  "source": "patent US7968762",
  "target": "human Met receptor (human) (UniProt P08581)",
  "sequence (P08581 25-1390)": "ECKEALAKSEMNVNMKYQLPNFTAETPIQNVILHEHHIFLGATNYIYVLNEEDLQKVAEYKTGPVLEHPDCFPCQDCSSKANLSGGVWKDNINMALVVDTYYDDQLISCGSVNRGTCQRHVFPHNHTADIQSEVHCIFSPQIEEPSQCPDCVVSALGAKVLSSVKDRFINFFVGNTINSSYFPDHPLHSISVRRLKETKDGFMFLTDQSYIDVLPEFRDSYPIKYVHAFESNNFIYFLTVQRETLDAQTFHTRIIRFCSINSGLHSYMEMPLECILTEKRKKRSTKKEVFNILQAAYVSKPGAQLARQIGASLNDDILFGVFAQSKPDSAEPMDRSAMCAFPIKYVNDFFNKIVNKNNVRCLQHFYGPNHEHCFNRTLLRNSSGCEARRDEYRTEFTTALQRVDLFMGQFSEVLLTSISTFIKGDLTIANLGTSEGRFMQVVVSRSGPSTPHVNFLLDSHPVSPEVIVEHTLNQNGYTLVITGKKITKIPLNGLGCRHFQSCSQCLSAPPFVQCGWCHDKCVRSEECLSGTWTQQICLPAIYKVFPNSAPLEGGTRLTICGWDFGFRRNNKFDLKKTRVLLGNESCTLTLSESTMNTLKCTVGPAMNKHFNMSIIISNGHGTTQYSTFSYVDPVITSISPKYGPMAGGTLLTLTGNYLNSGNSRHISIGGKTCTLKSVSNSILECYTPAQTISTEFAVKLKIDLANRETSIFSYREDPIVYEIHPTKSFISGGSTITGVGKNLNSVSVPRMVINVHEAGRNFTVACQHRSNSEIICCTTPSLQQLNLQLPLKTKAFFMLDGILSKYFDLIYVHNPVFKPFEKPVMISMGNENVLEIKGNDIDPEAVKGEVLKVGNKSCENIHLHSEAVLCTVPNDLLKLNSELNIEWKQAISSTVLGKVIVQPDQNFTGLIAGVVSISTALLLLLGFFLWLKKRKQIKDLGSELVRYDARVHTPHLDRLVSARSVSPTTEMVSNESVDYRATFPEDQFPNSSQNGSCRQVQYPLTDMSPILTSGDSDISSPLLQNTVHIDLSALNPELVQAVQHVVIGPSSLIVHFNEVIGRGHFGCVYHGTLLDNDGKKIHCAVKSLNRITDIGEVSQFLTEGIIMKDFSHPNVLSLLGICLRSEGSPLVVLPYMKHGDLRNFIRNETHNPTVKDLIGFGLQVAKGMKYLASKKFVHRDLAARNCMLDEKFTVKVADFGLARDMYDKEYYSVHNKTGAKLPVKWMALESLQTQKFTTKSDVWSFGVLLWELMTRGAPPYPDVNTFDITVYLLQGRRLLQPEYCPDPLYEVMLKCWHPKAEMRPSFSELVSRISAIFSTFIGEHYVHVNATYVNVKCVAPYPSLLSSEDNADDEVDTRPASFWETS",
  "assay": "cell-based or functional assay",
  "data": [
    {"substance": "human hepatocyte growth factor/scatter factor (hHGF/SF) (from UniProt P14210 32-728) (ligand)", "values": [
      {"measurement": "growth of subcutaneous SK-LMS-1 (high Met) xenografts in hHGF Tg scid mice against control scid mice", "value": 3, "unit": "fold"}
    ]}
  ]
}
